Data reported in patent US10196445.

What was measured:
Assay in all cases: Fc receptor binding, method not stated
[1] = biological target: CD32-R131 (FcγRIIa) (human) (UniProt P12318)
CD32B (FcγRIIb) (human) = CD32B (FcγRIIb) (human) (UniProt P31994)
CD64 (FcγRIa) (human) = CD64 (FcγRIa) (human) (UniProt P12314)
[2] = biological target: CD32-H131 (FcγRIIa) (human) (UniProt P12318)
[3] = biological target: CD16-V158 (FcγRIIIa) (human) (UniProt P08637)
Sequence of CD16-V158 (FcγRIIIa) (human) (P08637 17-208 F176V limits assumed): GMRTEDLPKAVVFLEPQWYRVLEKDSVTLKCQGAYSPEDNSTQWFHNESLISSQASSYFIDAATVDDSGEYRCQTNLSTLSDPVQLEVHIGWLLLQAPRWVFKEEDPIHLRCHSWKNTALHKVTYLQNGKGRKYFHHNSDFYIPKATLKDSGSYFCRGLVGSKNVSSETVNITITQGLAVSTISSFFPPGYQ

Sequence of CD32-R131 (FcγRIIa) (human) (P12318 34-217 H167R limits assumed): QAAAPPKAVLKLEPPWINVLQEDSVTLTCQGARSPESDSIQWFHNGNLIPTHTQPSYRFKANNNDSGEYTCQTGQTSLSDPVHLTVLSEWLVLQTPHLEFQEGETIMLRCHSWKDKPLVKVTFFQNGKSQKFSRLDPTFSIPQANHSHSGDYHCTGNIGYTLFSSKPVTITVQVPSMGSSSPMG
Sequence of CD64 (FcγRIa) (human) (P12314 16-288 limits assumed): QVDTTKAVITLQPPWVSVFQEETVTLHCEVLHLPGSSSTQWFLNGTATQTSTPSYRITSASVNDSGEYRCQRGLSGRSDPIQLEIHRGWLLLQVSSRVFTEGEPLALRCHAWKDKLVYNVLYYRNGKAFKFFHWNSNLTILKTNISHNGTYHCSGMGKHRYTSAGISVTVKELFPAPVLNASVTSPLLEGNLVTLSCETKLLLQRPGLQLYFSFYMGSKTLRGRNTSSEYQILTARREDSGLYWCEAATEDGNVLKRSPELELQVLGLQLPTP
Sequence of CD32-H131 (FcγRIIa) (human) (P12318 34-217 limits assumed): as the sequence (P12318 34-217 H167R limits assumed) above, with R134H counted along it
Sequence of CD32B (FcγRIIb) (human) (P31994 43-217 limits assumed): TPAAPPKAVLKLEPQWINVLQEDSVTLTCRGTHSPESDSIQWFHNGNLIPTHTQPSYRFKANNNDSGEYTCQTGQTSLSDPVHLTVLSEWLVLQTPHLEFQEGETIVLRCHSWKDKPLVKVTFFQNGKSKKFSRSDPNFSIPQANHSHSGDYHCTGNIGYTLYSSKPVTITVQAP

Kd [1]	Kd (CD32B (FcγRIIb) (human))	Kd (CD64 (FcγRIa) (human))	Kd [2]	Kd [3]	Substance
100 nM	890 nM	0.6 nM			GASDALIE modified IgG1f antibody (human IgG1, 214R/356E/358M allotype; G236A, S239D, A330L and I332E)
960 nM		0.2 nM	530 nM	97 nM	IgG1f antibody (human IgG1, 214R/356E/358M allotype)
710 nM		0.1 nM	560 nM	11 nM	non-fucosylated IgG1f antibody (human IgG1, 214R/356E/358M allotype)
